Series [1] concerns the molecule itself. The series can be described thus: scanning Number and Brightness.
Series [2] concerns the molecule itself. The series can be described thus: scanning Number and Brightness. This is another data set of the same source.
The series “SEC” concerns the molecule itself. The series can be described thus: SEC. Background: Size exclusion chromatography separates by hydrodynamic size, large species first.

“And” between values parts separate entries of the source, which are not always exact repeats. Equal values may be shown once.

B1: GFP-Mrr D203A catalytic mutant (enzyme)
chain: MTVPTYDKFIEPVLRYLATKPEGAAARDVHEAAADALGLDDSQRAKVITSGQLVYKNRAGWAHDRLKRAGLSQSLSRGKWCLTPAGFDWVASHPQPMTEQETNHLAFAFVNVKLKSRPDAVDLDPKADSPDHEELAKSSPDDRLDQALKELRDAVADEVLENLLQVSPSRFEVIVLDVLHRLGYGGHRDDLQRVGGTGDGGIAGVISLDKLGLEKVYVQAKRWQNTVGRPELQAFYGALAGQKAKRGVFITTSGFTSQARDFAQSVEGMVLVDGERLVHLMIENEVGVSSRLLKVPKLDMDYFE
For the protein B1, the “stoichiometry N” value in series [1] worked out at 2.

B2: GFP-Mrr fusion protein (Mrr, Methylated adenine Recognition and Restriction, fused with GFPmut2) (enzyme)
chain: MTVPTYDKFIEPVLRYLATKPEGAAARDVHEAAADALGLDDSQRAKVITSGQLVYKNRAGWAHDRLKRAGLSQSLSRGKWCLTPAGFDWVASHPQPMTEQETNHLAFAFVNVKLKSRPDAVDLDPKADSPDHEELAKSSPDDRLDQALKELRDAVADEVLENLLQVSPSRFEVIVLDVLHRLGYGGHRDDLQRVGGTGDGGIDGVISLDKLGLEKVYVQAKRWQNTVGRPELQAFYGALAGQKAKRGVFITTSGFTSQARDFAQSVEGMVLVDGERLVHLMIENEVGVSSRLLKVPKLDMDYFE
As for B2, the “stoichiometry N” value in series [2] stood at 2.

B3: Strep-tagged GFP-Mrr (enzyme, Escherichia coli K-12, UniProt P24202 1-304, looked up)
chain: MTVPTYDKFIEPVLRYLATKPEGAAARDVHEAAADALGLDDSQRAKVITSGQLVYKNRAGWAHDRLKRAGLSQSLSRGKWCLTPAGFDWVASHPQPMTEQETNHLAFAFVNVKLKSRPDAVDLDPKADSPDHEELAKSSPDDRLDQALKELRDAVADEVLENLLQVSPSRFEVIVLDVLHRLGYGGHRDDLQRVGGTGDGGIDGVISLDKLGLEKVYVQAKRWQNTVGRPELQAFYGALAGQKAKRGVFITTSGFTSQARDFAQSVEGMVLVDGERLVHLMIENEVGVSSRLLKVPKLDMDYFE
Take B3: in “SEC”, the “stoichiometry N” value is 4 and 2.

The term stoichiometry N denotes a count of units in the complex or per binding partner.

The values above are taken from paper PMC5435990 (Nucleic Acids Research, 2017).
